Source: US20160053277A1, “Compositions Having Dicamba Decarboxylase Activity and Methods of Use” (PIONEER HI-BRED INTERNATIONAL, INC., priority 2013, published 2016)

How the values were obtained:
[1] = 14C assay with IPTG-induced recombinant E. coli cells: 14CO2 captured from [14C]-carboxyl-labeled dicamba; details: for Enzymatic Detection level: dicamba decarboxylation activity of the protein of the given SEQ ID NO, High / Low / No; for Dicamba Decarboxylase Activity: induced recombinant E. coli cells, [14C]-carboxyl-labeled dicamba, 14CO2 capture
[2] = Saturation mutagenesis of SEQ ID NO:109: dicamba decarboxylation activity of point mutants (carbon dioxide released); details: decarboxylation activity (carbon dioxide released) of point mutant compared with unmutated backbone protein; backbone SEQ ID NO: 109

B1: 8 (protein, listed as Metarhizium anisopliae)
chain: MARGKINFEEAFELPTLADSSREQAALYIAPKDLDRYIYHIKHPLGERLQLANSHGIGYTIYSLTVPGIQGIPDQSKAEQHATTVNDWIANEIKDHRDRLGAFAALSMHDAAQAAAELERCVRQHGFHGALLNNYQHAGPDGETYLFYDQPAYDVFWQKCVELDVPVYLHPAAPAGNYYKQMYAQRKYLVGPPLSFANDVSLHLLGLVTNGVFDRFPKLKVVVGHLGEHIPFDFWRISHWLEDVERPLAAGRGDVMSKKDLLYYFKNNIWVTTSGHFSTPTVRYVADYLGPERIMFSVDTPYETIENGVGWFDGEEDALTRALGGEDGYKKVARENAKKLFKLTKYHDCDA
[1]
  Enzymatic Detection level: Low
  Dicamba Decarboxylase Activity: Low
[2]
  Fold Activity: 1.3

B2: 9 (protein, listed as Octadecabacter antarcticus)
chain: MATPKITFEEHFMAPGFEKHSEAFLKLIPRDQAEILTRRLGDFDGERIETMDRGGITRSIISLTGPGTQGEAVEKAVSAAQGANDFLAEKISKKPDRLGGLATLPMHDPDAAARELNRAVNDLGLQGCLVNTHTHGAYYEGTDYDPFWAEVEKLGVPFYLHPSNAYVTPHVLGGMPVLQGATWGWGVETGSHALRILFGGVFDRFPDVKLVLGHMGEALPFLRWRYDSRFGAYPMGVSLDRAPSAYFGSNILITTSGVCSHPSLIGAIGEMGADAVMFSVDYPYEDTDLAVEFIETAPLEDATRVKICHDNAARLFGMPTLAAKEGA
[1]
  Enzymatic Detection level: No
  Dicamba Decarboxylase Activity: No
[2]
  Fold Activity: 1.2

B3: 10 (protein, listed as Starkeya novella)
chain: MARKIALEEHFTTPELAGKYVARPTQSDALFADIERRLADFDELRLEMMDRAEIDLMVLSVTTPGVQGVRDTGEAIRLARGANDFLAREVQKRPSRYAGFAHLAMQDAEAAATELERAVRELGFRGALINGQTNGHYLDEDQYAPFWERVQELDVPVYLHPGNMADSPAMFAHRPELGGPIWAWTAETAAHALRLVFGGTFTRFPGAKVILGHMGETLPFLLWRLDSRREFDLGEKLAPDALPSAIIKRNIAVTTSGVCDPAPLVAALQALSDDNVMFSVDYPYEDPQLASKFIETAPIGEETRAKVCHGNAERLLGL
[1]
  Enzymatic Detection level: Low
  Dicamba Decarboxylase Activity: Low
[2]
  Fold Activity: 1.2

B4: 11 (protein)
chain: MALGKIALEEAFALPRFEEKTRWWASLFSVDPETHVKEITDINKLRIEHADKYGVGYQILSYTAPGVQDIWDPVEAQALAVEINDYIAEQIRDKPDRFGAFATLSMHNPQEAASELRRCVQTYGFKGALVNDTQRAGPDGDDMIFYDNASWDIFWQTCTELDVPLYLHPRNPTGTIYEKLWADRKWLVGPPLSFAQGVSLHVLGMVTNGVFDRHPNLQLIMGHLGEHVPFDMWRINHWFEDRKKLLGLAETCKKTIREYFAQNIWITTSGHFSTTTLNFCMAEVGVDRILFSIDYPFETFEDACVWFDGAELNLSDKAKIGRDNAARLFKLGAFRDYDAKVKA
modifications: Aspergillus niger
[1]
  Enzymatic Detection level: Low
  Dicamba Decarboxylase Activity: Low
[2]
  Fold Activity: 1

B5: 12 (protein, listed as Zymoseptoria tritici)
chain: MALGKVAFEEAFALPRFKERTTWWAGLFAVDPEKHTREINDINKLRIEKMDQFGVGYTLLSYTAPGVQDVWQQEEADALAREVNDHVAAEIKGHEDRLGALATLSMHDPQTASAELRRCIKDYGFKGALVNDTQRNDESGTGMIFYDGPEWDVFWSTVQELDVPFYLHPRNPTGVFMEKLWAPRKWLVGPPLSFAQGVSLHLLGMVTNGTFDRFPNLQVIIGHLGEHLPFDLWRINHWFEDIKKPLGLDCKKTIREYFNENIWITTSGHFSTPTLEYCIKEIGAERILFSIDYPFEKFEDACDWYDGVELDGPDTVKKIGRENAKKLFKLGAFKDDSA
[1]
  Enzymatic Detection level: No
  Dicamba Decarboxylase Activity: No
[2]
  Fold Activity: 0.9

B6: 13 (protein, listed as Metarhizium acridum)
chain: MAHGKVALEEAFALPRLHEKTRWWASLFAVNPDKHAAEMTDITDIRINYMDKHGVGYTILSYTAPGVQDISDPKEAQALAVEINDYVAGAIKNHPDRFGAFATLSMRNPQEAATELKRCVTQYGFKGALVNDTQRAGEDDMIFYDGPEWDVFWSTVEELDVPFYLHPRNPTGSLYEKLWAKRKWLVGPPLSFAQGVSLHVLGMVTNGVFDRHPKLQVVLGHLGEHIPFDMWRINHWFEDVKKPLGLDCKKTIREYFQQNIWITTSGHFSTTTLQFCMAEVGADRILFSIDYPFECFADACDWYDGVPINLVDKAKIGRDNARRLFKLPEFKDSEKHVDA
[1]
  Enzymatic Detection level: No
  Dicamba Decarboxylase Activity: No
[2]
  Fold Activity: 1

B7: 14 (protein, listed as Talaromyces marneffei)
chain: MARGKVSFEEAYEIPALADKSREQAALYIAPKDLDRYLSEIKSPTGGRLDISNKNGIGYTIYSLTVPGVQGIADKAKAEKHATDVNNWIYNEIKDHRDRMGAFAALSMHDPVQAGQELERCVKKLGFHGALLNNWQHAGTDGETYIFYDHPSYDVFWQKCVELDVPVYLHPSAPSGKVFDTFFKDRRYLIGPPISFAQDVALHTMGLITNGVFDRNPKLKLILGHLGERIPQDLWRTNHWLEDVERPLADSRGDTMSRKPLLYYFKNNIYVTTSGHFSTETVKFVCDYFGADRILFSVDSPYEKIEEGAGWYDKDKDNLTKALGGPQQYLDVGRENAKKLFKLGKYHDCDA
[1]
  Enzymatic Detection level: Low
  Dicamba Decarboxylase Activity: Low
[2]
  Fold Activity: 1

B8: 15 (protein, listed as Metarhizium anisopliae)
chain: MAQEIAKSHETSTRFAGFAVLPMRDPEAAAKELERAVKKLGFVGALVDHKTAHGNGFCEGNEYDVLWRKAEQLAVPIYLHPSWPTEKQFQQAYAGNYSPTAAGTIGGAMFNWHSEVGHHVLRLYAAGVFDKFPKLKIIIGHFGEMIPYMLDRIREQDHRLGKTGRTFSEVYDENIWITTSGVWSLDPMRCILANTKIDHILYSVDYPFTMNERGLEWFQELEKSGLLSEEDLALIAYKNCEKLLGVKAPTQD
[1]
  Enzymatic Detection level: Low
  Dicamba Decarboxylase Activity: Low
[2]
  Fold Activity: 1

B9: 17 (protein)
chain: MARGKIALEEAFEVKGMDEEIDAQAALYIAPKDVERYKRQIVSITDERLQLSDQNGIGYSILSLTVPGIQGITDKDKAEKRARDVNNYIHDQIKDHRDRLGAFAALSMHDPRQAGHELRRCVKELGFHGALLNDVQHTGEGDDDQPLFYDQPDYDEFWRVAVELDVPVYLHPAAPLRDTLIYKQSYEDRKYLVGPPQSYCNGVALHLMGIIVNGVFDRFPNLKVIVGHMGERIPFDFWRMDHWVKGVTRPLAEKNGDTVCQKEPLYYFKRNIYITTSGHFSTQNLRYLYEWLGDERMMFSVDFPYERMEHGCQWYDDDAEKIKEALGGRDGYLRVGRDNARRLFKLTKFKDCDAV
modifications: Aspergillus niger
[1]
  Enzymatic Detection level: Low
  Dicamba Decarboxylase Activity: Low
[2]
  Fold Activity: 1.8

B10: 18 (protein, listed as Legionella pneumophila)
chain: MAIVDFETHFITEACIDYLTQRQEVPKLVPELNGAYTMCFTPDVSLFHTSALMEELLSLNEQRLAIMDQAGVTIQVLSLTTINGIDSCPGDENKSTALAREVNDQLYSAIQKHPERFKGFASISPYDVKEGVKELERAISQLGFVGWLTHSNFGQDNYLDDKIYWPLLEAAESLNIPIYLHPNVPIMREFGKYGFALGGSALGFEFDTALCLMRMILGGVFDAFPKLKIMLGHLGETMPFLMERLDHLYRIPDLKPYRPSIQRIPSEVLRQNVYITTSGRFFVPALRYVLEVMGEDRVLFASDYPMESLLDATRFIQDSDLSNQTKQKIFSINAKNLNLI
[1]
  Enzymatic Detection level: Low
  Dicamba Decarboxylase Activity: Low
[2]
  Fold Activity: 1.2

B11: 20 (protein, listed as Legionella pneumophila)
chain: MAIVDFETHFITEACIDYLTQRQEVPKLVPDLNGAYTMCFTPDVSLFHTSALMEELLSLNEQRLAIMDQAGVTIQVLSLTTINGIDSCPGDENKSTALAREVNDQLYSAIQRHPERFKGFASISPYDVKEGVKELERAISQLGFVGWLTHSNFGQDNYLDDKTYWPLLEAAEGLNIPIYLHPNVPIMREFGKYGFALGGSALGFEFDTALCLMRMILGGVFDAFPKLKIMLGHLGETMPFLMERLDHLYRIPDLKAYRPSIQRIPSEVLRQNVYITTSGRFFVPALRYVLEVMGEDRVLFASDYPMESLLDATRFIQDSDLSNQTKQKIFSINAKNLNLI
[1]
  Enzymatic Detection level: Low
  Dicamba Decarboxylase Activity: Low
[2]
  Fold Activity: 1.8

B12: 23 (protein, listed as Aplysina aerophoba)
chain: MAIDIDARSQPGLETARRAMSRRDFLGGAAAFGITAAATTALPASTAAGEEEDLFLLGLEEHFATAELRRLNGIQFPQGTPRFDINDVGAGRIADMDAAGIDIQVLSALTPGAQNLPGAEGVAYARRLNSWVAHEVIPAYPGRFRAFATLPLSEPQAAADELEYAVRELGFLGCMTYGAVDGKFLDHADFVPVLARAETLDVPIYIHPNWASPQVMDTYYNGLGNEWVSRVLSGAGYGWHQEVALQCLRMIASGVFDRFPRLQIIVGHMGEGLPFFYWRFGDDLARITADTLEKPVQQYFHDNFWITTSAFFRDELLRLVLSVMGEDRVMFAVDYPFVSNKVGADWFRAVDLPRNVKEKIAHKNAERLLKIGPF
[1]
  Enzymatic Detection level: Low
  Dicamba Decarboxylase Activity: Low
[2]
  Fold Activity: 1.5

B13: 24 (protein)
chain: MALGKVVLEEAYERPNMKEKSNHEAGLYIAPNDRPRYMRQINDINQERLKLADAHGVGYTIISLTVPGIQGIFDKTEAERVATETNNWAAEQIKNHRDRLGAFACLSMHDPAQAANELRRCVQELGFHGALLCSFQHAGPDGETYLFYDQPKYDVFWKALTELDVPLYIHPAAPTGSILERLYAQRPALIGPPLSFANDVSLHTLGIISNGVFDRFPNLKIIIGHLGEHIPFDFWRIDHWFRDVKKPIADEEGRVMAQKSLYHYFKHNIWLTTSGHFSTPTLKYVVNEIGVDRVLFSVDYPYETTESGCNWWDHDKDAIVEAVGGVDNYYAIGRENAKKLLRLDKFHDSDAR
modifications: Aspergillus niger
[1]
  Enzymatic Detection level: Low
  Dicamba Decarboxylase Activity: Low
[2]
  Fold Activity: 1.6

B14: 25 (protein, listed as Acidovorax avenae)
chain: MAQGKIGLEEHFAIPETLQDSAGFVPGDYWKELSLRLLDIHERRLREMDENGMEMMILSLNAPAVQAIPDTKKAVEIAVRANDFLAEQVARRPDRFQAFAALPMQDPDLATRELERCMQDLGFRGALVNGFSQVGTPENVVYYDAPQYGDFWAAVERLDAPFYLHPRNPIASWAQIYQGHPWLMGPTWAFAQETAVHALRLMASGLFDRHPGLRIILGHLGEGLPYNMWRVDHRNAWVDMPKGYPAKRKLCDYFHENFYLTTSGNFRTQTLIDALLEVGADRILFSTDWPFENVDHAAHWFDDAAISEADRLKIGRTNALSLFKLPQG
[1]
  Enzymatic Detection level: Low
  Dicamba Decarboxylase Activity: Low
[2]
  Fold Activity: 1
